From patent US8796209B2, “Compositions and methods related to anti-FGF agents” (The Regents of the University of California, priority 2005, dated 2014) come the findings set out here.

A short description of assay [1]: Heparin binding assay (heparin sepharose column, NaCl step elution). Particulars: for Heparin binding: phenotype of FGF-1 mutants, Table 2. On the procedure:
Partially purified wt and mutant FGF1 in 100 mM NaCl and 50 mM Tris (pH 7.4) were applied to a heparin sepharose column (1 ml bed volume). The column was washed with the same buffer and bound proteins were eluted with a stepwise increase in NaCl concentration from 0.1 to 1.2 M. Fractions were analyzed by SDS-polyacrylamide gradient gel electrophoresis. Proteins were visualized by Coomassie Brilliant Blue staining.
Wild type and mutant FGF-1 in 100 mM NaCl and 50 mM Tris/HCI (pH 7.4) were applied to heparin sepharose column (1 ml bed volume). The column was washed with same buffer, and bound proteins were eluted with a stepwise increase in NaCl concentration from 0.1 to 1.2 M. Fractions were analyzed by SDS-polyacrylamide gradient gel electrophoresis. Proteins were visualized by Coomassie Brilliant Blue staining.

The target of the next assay is T1, FGFR1 D2D3 fragment (Homo sapiens, UniProt P11362).
T1 construct: A DNA fragment encoding amino acid residues 140 to 365 of the immunoglobulin-like domains D2 and D3 of FGFR; made in house
T1 sequence (P11362 140-365): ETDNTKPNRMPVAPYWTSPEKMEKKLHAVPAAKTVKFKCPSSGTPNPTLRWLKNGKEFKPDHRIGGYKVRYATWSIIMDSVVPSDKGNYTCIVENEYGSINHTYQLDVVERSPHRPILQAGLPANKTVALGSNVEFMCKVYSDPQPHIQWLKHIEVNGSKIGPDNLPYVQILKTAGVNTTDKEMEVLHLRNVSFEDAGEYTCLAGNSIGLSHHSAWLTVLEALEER
As to the kind of experiment: Competition with biotinylated FGF-1 for immobilized FGF receptor D2D3 fragments. Format: binding. As to conditions: for effect of the mutation on binding of the FGFR1 D2D3 fragment: competition with 1 μg/ml biotinylated FGF-1; for FGFR binding: phenotype of FGF-1 mutants, Table 2. On the procedure:
One μg/mi biotinylated FGF-1 and increasing concentrations of unlabelled FGF-1 or FGF-1 mutants were incubated for 1 h at RT with immobilized FGF receptor D2D3 fragments. Then the plate was washed and the bound biotinylated FGF were measured using an avidin conjugated HRP. Unlabeled wild-type (diamond) FGF-1, the R50E (square), 4xE (circle), and 3xA (triangle) FGF-1 mutants were used.
A DNA fragment encoding amino acid residues 140 to 365 of the immunoglobulin-like domains D2 and D3 of FGFR was amplified by PCR with the full length human FGFR1 cDNA in the pcDNA3 (gift from Ann Hanneken, the Scripps Research Institute, La Jolla, Calif.) as a template. A Bam HI restriction site was introduced at the 5′ end, Xho I site at the 3′ end of the cDNA fragment with the following primers: 5′-[…]-3′ (SEQ ID NO:5), 5′-[…]-3′ (SEQ ID NO:6). The resulting cDNA fragment was subcloned into the Bam HI/Xho I sites of the vector pET21a, and transformed into BL21 (DE3).
The protein was expressed as an insoluble protein, refolded as described (Plotnikov et al., 2000). The refolded protein was purified by affinity chromatography using the FGF-1 coupled to CNBr-activated Sepharose (Amersham Pharmacia Biotech) as an affinity matrix. FGF-1-Sepharose was incubated with crude refolded proteins 16 h at 4° C. After binding, the affinity matrix was washed with buffer containing 100 mM NaCl and 50 mM Tris (pH 7.4); and eluted with 1.2M NaCl, and 50 mM Tris (pH 7.4).

The subject of another assay is ERK1/2. Put plainly: MAP kinase (ERK1/2) activation, western blot. Type of assay: cell-based, mouse. As to conditions: for ability to induce ERK1/2 activation: 5 ng/ml, 10 min, with or without 5 μg/ml heparin; for ERK1/2 activation: phenotype of FGF-1 mutants, Table 2. On the procedure:
Serum starved Balb3T3 cells were stimulated with wild-type and mutant FGF-1s (5 ng/ml) in the presence or absence of 5 μg/ml heparin for 10 min at 37° C. Cell lysates were analyzed by western blotting with anti-phospho ERK1/2 (anti phospho-ERK). Total amount of ERK1/2 in each lane was determined by blotting with anti-ERK1/2. Controls contain medium alone (none) or medium containing 10% fetal calf serum (FCS).
Balb3T3 cells were grown to confluence and serum starved in DMEM supplemented with 0.4% fetal calf serum for 24 h, and stimulated with wild type and mutant FGF-1 (5 ng/ml) in the presence or absence of 5 μg/ml heparin for 10 min at 37° C. Cells were washed twice with ice-cold PBS and lysed with the lysis buffer (20 mM Tris-HCI pH 8.0, 120 mM NaCl, 5 mM EDTA, 0.5% Triton-X100, 1 mM PMSF, 1 mM DTT, 10 mM NaF, 1 mM Na3VO4, 10 μg/ml aprotinin). Cell lysates were separated on 4-12% NuPAGE Bis-Tris Gel (invitrogen). Proteins were then transferred to PVDF membranes (Milli-pore), probed with antibodies, and bound antibodies were detected by HRP-conjugated anti-mouse IgG and chemiluminescence HRP substrate (Pierce). The antibodies used were anti-phospho-ERK1/2, anti-ERK1/2 (Cell Signaling Technology).
On the technique in general: Immunoblotting shows a protein as a band on a membrane.

The subject of assay [2] is Human microvascular endothelial (HMVE) cells. As to the kind of experiment: Tube formation by endothelial cells on Matrigel. Type of assay: cell-based. As to conditions: 24 h. On the procedure: Digital images were taken by using a fluorescent microscope and analyzed by using ImageJ, using human microvascular endothelial (HMVE) cells added to the matrix-coated wells of 96-well plates at 2×10^4 cells/well in medium M-131 plus 0.1% hydrocortisone and 0.1% FBS for. Cells were incubated for 24 h in the presence of wt or mutant FGF. To enhance images, calcein AM was added to the medium.
Wells of 96-well FluoroNunc black plates were coated with 50 μl of matrigel basement membrane matrix (BD Bioscience) and allowed to gel at 37° C. for 30 min. Endothelial cells growing on the tissue culture plastic were trypsinized, washed, and added to the matrix-coated wells at 2×10^4 cells/well. Plating was performed in medium M-131 plus 0.1% hydrocortisone and 0.1% FBS for Human microvascular endothelial (HMVE) cells. Cells were incubated for 24 h in the presence of wt or mutant FGF. To enhance images, calcein AM (Invitrogen) was added to the medium (10 μg/ml) and incubated for 15 min at 37° C. Digital images were taken by using a fluorescent microscope and analyzed by using ImageJ. (FIGS. 9A and 9B).

Another assay deals with αvβ3-K562 cells. Put plainly: Cell adhesion assay on immobilized FGF-1, αvβ3-K562 cells. Format: cell-based. As to conditions: 1 mM MnCl2. On the procedure:
Wells of 96-well microtiter plates were coated with FGF-1 at the indicated concentrations and remaining protein binding sites were blocked with 1 mg/ml BSA. Hepes-Tyrode buffer supplemental with 1 mM MnCl2) was used for adhesion assays. Prior to incubation with immobilized FGF-1, αvβ3-K562 cells were treated with 10 μg/ml anti-β3 function-blocking antibody 7E3 (triangle), anti-α5 function-blocking antibody KH72 (square), both 7E3 and KH72 (circle), or mouse IgG (diamond). BSA (cross) was used as a negative control. Data is shown as means+/−SD of triplicate experiments.
Wells of polystyrene 96-well non-tissue culture plate were coated with wild type or mutants FGF-1 as above. In adhesion assay, cells (10^5 cells/well) in 100 μl of Hepes-Tyrode buffer supplemented with 1 mM Mn^2+ were added to the wells and incubated at 37° C. for 1 h. After non-bound cells were removed by rinsing the wells with the same buffer, bound cells were quantified by measuring endogenous phosphatase activity (Prater et al., 1991)

On to “R50E: FGF-1 mutant with the Arg-50 to Glu (R50E) mutation”, for which, in assay [1], the “effect of the mutation on heparin binding to FGF-1” value (“effect of the mutation … to FGF-1” below) is given as “did not” and the Heparin binding result is on record as “Normal”. Besides, in the assay with FGFR1 D2D3 fragment, the “effect of the mutation on binding of the FGFR1 D2D3 fragment” value (shortened to “effect … of the FGFR1 D2D3 fragment”) is “did not block” and the FGFR binding entry is given as “Normal”. In the assay with ERK1/2, the “ability to induce ERK1/2 activation” value is “much less ability” and the ERK1/2 activation entry was “Low”. For the same molecule, the “tube formation by endothelial cells on matrigel” value in assay [2] is reported as “block tube formation”.

“Wild type: human FGF-1 (acidic FGF), wild type, expressed in E. coli”: the Heparin binding entry in assay [1] is “Normal”. Besides, the FGFR binding result with FGFR1 D2D3 fragment was “Normal”. The ERK1/2 activation result in the assay on ERK1/2 was “Normal”. Besides, the “tube formation by endothelial cells on matrigel” value in assay [2] is listed as “enhanced”. In addition, the “adhesion of αvβ3-K562 cells to the immobilized protein” value in the assay with αvβ3-K562 cells was “bound to immobilized FGF-1 in a dose-dependent manner”.

B1: 4xE: FGF-1 mutant, Lys127/Lys128/Lys133/Arg134 simultaneously to Glu (protein)
chain: FNLPPGNYKKPKLLYCSNGGHFLRILPDGTVDGTRDRSDQHIQLQLSAESVGEVYIKSTETGQYLAMDTDGLLYGSQTPNEECLFLERLEENHYNTYISKKHAEKNWFVGLEENGSCEEGPRTHYGQKAILFLPLPVSSD
Regarding B1, in assay [1], the “effect of the mutation … to FGF-1” value is “completely blocked” and the Heparin binding entry is “Low”. Moreover, in the assay with FGFR1 D2D3 fragment, the “effect … of the FGFR1 D2D3 fragment” value is “did not block” and the FGFR binding result is reported as “Normal”. Also, in the assay with ERK1/2, the “ability to induce ERK1/2 activation” value is given as “did not induce ERK1/2 activation at all” and the ERK1/2 activation result is on record as “Low”.

B2: 3xA: FGF-1 mutant, three residues in the FGFR binding site (Glu102/Tyr109/Asn110) to Ala (protein)
chain: FNLPPGNYKKPKLLYCSNGGHFLRILPDGTVDGTRDRSDQHIQLQLSAESVGEVYIKSTETGQYLAMDTDGLLYGSQTPNEECLFLARLEENHAATYISKKHAEKNWFVGLKKNGSCKRGPRTHYGQKAILFLPLPVSSD
Consider B2, for which, in assay [1], the “effect of the mutation … to FGF-1” value is “did not” and the Heparin binding result is recorded as “Normal”. In the assay with FGFR1 D2D3 fragment, the “effect … of the FGFR1 D2D3 fragment” value is given as “effectively blocked” and the FGFR binding result was “Low”. In the assay with ERK1/2, the “ability to induce ERK1/2 activation” value is “did not show ERK1/2 activation” and the ERK1/2 activation result is given as “Low”.
